How the values were obtained:
[1] = molecular target: GAL4-cJun(43-223) (yeast; human), P04386; assay: cell-based or functional assay
[2] = molecular target: GAL4-cJun(56-223) (yeast; human), P04386; assay: cell-based or functional assay
[3] = molecular target: GAL4-cJun(33-223) (yeast; human), P04386; assay: cell-based or functional assay
[4] = molecular target: T1, GSTcJun(Ala63/73), GST fused to c-Jun AA 1-223 with Ser 63 and Ser 73 converted to alanines
T1 chain: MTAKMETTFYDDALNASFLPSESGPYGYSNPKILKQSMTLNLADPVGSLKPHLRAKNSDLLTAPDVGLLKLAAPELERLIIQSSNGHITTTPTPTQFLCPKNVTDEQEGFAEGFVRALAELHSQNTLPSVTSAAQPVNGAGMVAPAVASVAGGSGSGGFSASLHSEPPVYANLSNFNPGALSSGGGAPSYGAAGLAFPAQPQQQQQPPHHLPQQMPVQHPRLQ

[5] = molecular target: T2, GSTcJun(33-223), GST fused to c-Jun AA 33-223
T2 chain: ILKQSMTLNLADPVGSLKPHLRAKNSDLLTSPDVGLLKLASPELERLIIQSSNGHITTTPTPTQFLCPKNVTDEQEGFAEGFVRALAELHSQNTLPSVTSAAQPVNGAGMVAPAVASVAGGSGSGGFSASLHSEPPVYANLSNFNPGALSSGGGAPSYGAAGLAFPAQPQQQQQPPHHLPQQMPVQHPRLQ

[6] = molecular target: GSTcJun(wt), glutathione-S-transferase fused to c-Jun AA 1-223 [GST: P08515]
[7] = molecular target: T3, GST-cJun(1-79), GST fused to c-Jun AA 1-79
T3 chain: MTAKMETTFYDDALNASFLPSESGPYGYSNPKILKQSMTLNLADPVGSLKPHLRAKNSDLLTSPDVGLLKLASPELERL

[8] = molecular target: GSTvJun, GST fused to the region of v-Jun equivalent to chicken c-Jun AA 1-144 [GST: P08515]
[9] = molecular target: T4, GST-cJun(43-223), GST fused to c-Jun AA 43-223
T4 chain: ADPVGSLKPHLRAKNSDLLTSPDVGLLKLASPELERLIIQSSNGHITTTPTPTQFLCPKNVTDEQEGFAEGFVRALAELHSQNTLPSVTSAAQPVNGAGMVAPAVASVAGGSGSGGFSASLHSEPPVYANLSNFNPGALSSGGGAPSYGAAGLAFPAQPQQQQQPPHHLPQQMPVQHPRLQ

[10] = molecular target: myelin basic protein (MBP)

B1: c-Jun N-terminal protein kinase (JNK), 46 kD form, endogenous kinase from cell extracts, P45983-2 1-384 (enzyme)
chain: MSRSKRDNNFYSVEIGDSTFTVLKRYQNLKPIGSGAQGIVCAAYDAILERNVAIKKLSRPFQNQTHAKRAYRELVLMKCVNHKNIIGLLNVFTPQKSLEEFQDVYIVMELMDANLCQVIQMELDHERMSYLLYQMLCGIKHLHSAGIIHRDLKPSNIVVKSDCTLKILDFGLARTAGTSFMMTPYVVTRYYRAPEVILGMGYKENVDLWSVGCIMGEMVCHKILFPGRDYIDQWNKVIEQLGTPCPEFMKKLQPTVRTYVENRPKYAGYSFEKLFPDVLFPADSEHNKLKASQARDLLSKMLVIDASKRISVDEALQHPYINVWYDPSEAEAPPPKIPDKQLDEREHTIEEWKELIYKEVMDLEERTKNGVIRGQPSPLAQVQQ
Ha-Ras responsiveness, CAT activity of 5xGAL4-Elb-CAT reporter in F9 cells (fold induction) [1]: 5.2
UV responsiveness, CAT activity of 5xGAL4-Elb-CAT reporter in F9 cells [1]: 1.5 fold
Ha-Ras responsiveness, CAT activity of 5xGAL4-Elb-CAT reporter in F9 cells (fold induction) [2]: 5.2
UV responsiveness, CAT activity of 5xGAL4-Elb-CAT reporter in F9 cells [2]: 1.5 fold
Ha-Ras responsiveness, CAT activity of 5xGAL4-Elb-CAT reporter in F9 cells (fold induction) [3]: 9.8

B2: c-Jun N-terminal protein kinase (JNK), 46 kD form, endogenous kinase from cell extracts (protein)
chain: B1 chain
phosphorylation in solid-phase kinase assay [4]: Phosphorylation of this protein was considerably lower than that of GSTcJun(wt)
phosphorylation of the GSTcJun fusion protein by bound kinase [5]: Removal of AA 1-32 decreased phosphorylation of GSTcJun but had only a small effect on kinase binding

B3: epitope-tagged JNK1 (Flag epitope Asp-Tyr-Lys-Asp-Asp-Asp-Asp-Lys inserted between codons 1 and 2), expressed in COS cells (protein)
chain: MDYKDDDDKSRSKRDNNFYSVEIGDSTFTVLKRYQNLKPIGSGAQGIVCAAYDAILERNVAIKKLSRPFQNQTHAKRAYRELVLMKCVNHKNIIGLLNVFTPQKSLEEFQDVYIVMELMDANLCQVIQMELDHERMSYLLYQMLCGIKHLHSAGIIHRDLKPSNIVVKSDCTLKILDFGLARTAGTSFMMTPYVVTRYYRAPEVILGMGYKENVDLWSVGCIMGEMVCHKILFPGRDYIDQWNKVIEQLGTPCPEFMKKLQPTVRTYVENRPKYAGYSFEKLFPDVLFPADSEHNKLKASQARDLLSKMLVIDASKRISVDEALQHPYINVWYDPSEAEAPPPKIPDKQLDEREHTIEEWKELIYKEVMDLEERTKNGVIRGQPSPLAQVQQ
phosphorylation, immunecomplex kinase assay [6]: JNK1 efficiently phosphorylated GST-cJun fusion proteins containing residues 1-223 and 1-79 of c-Jun
phosphorylation, immunecomplex kinase assay [7]: JNK1 efficiently phosphorylated GST-cJun fusion proteins containing residues 1-223 and 1-79 of c-Jun
phosphorylation, immunecomplex kinase assay [8]: both GST-vJun and myelin basic protein (MBP) are very poor substrates for JNK1
phosphorylation, immunecomplex kinase assay [9]: a deletion of c-Jun NH2-terminal sequences including the d-domain (residues 1-42) caused a marked decrease in phosphorylation by JNK1
phosphorylation, immunecomplex kinase assay [10]: both GST-vJun and myelin basic protein (MBP) are very poor substrates for JNK1
phosphorylation, immunecomplex kinase assay [4]: Replacement of Ser-63 and Ser-73 with Ala also decreased the observed phosphorylation
